Measured values published in patent US20210032299A1 (Eli Lilly, published 2021).
Starred links: 1 amine or outer side, 2 acyl side, 3 side chain; linkers in the order of their positions; H or OH if unused. Non-standard residues stand in square brackets, D forms with d. Groups on a side chain read outwards from the residue. No end group written: not given here. *: point of attachment. C20 diacid = O=C(O)CCCCCCCCCCCCCCCCCCC(=O)*; αMePhe(2-F) = C[C@](N)(Cc1ccccc1F)C(=O)O; γGlu = O=C(O)[C@H](CCC(=O)[*:2])N[*:1]; αMeF = C[C@](N)(Cc1ccccc1)C(=O)O; 4Pal = N[C@@H](Cc1ccncc1)C(=O)O; αMeL = CC(C)C[C@](C)(N)C(=O)O; AEEA = NCCOCCOCC(=O)O; Aib = CC(C)(N)C(=O)O

B1: Example 41 (peptide)
peptide: Y[Aib]EGT[αMeF]ISDYSIALDKK([AEEA-AEEA-γGlu-C20 diacid])HQ[Aib]DFVE[4Pal]LLETGPSSGAPPPS-NH2
modifications: N-terminus assumed
SMILES: CC[C@H](C)[C@H](NC(=O)[C@H](CO)NC(=O)[C@H](Cc1ccc(O)cc1)NC(=O)[C@H](CC(=O)O)NC(=O)[C@H](CO)NC(=O)[C@@H](NC(=O)[C@](C)(Cc1ccccc1)NC(=O)[C@@H](NC(=O)CNC(=O)[C@H](CCC(=O)O)NC(=O)C(C)(C)NC(=O)[C@@H](N)Cc1ccc(O)cc1)[C@@H](C)O)[C@@H](C)CC)C(=O)N[C@@H](C)C(=O)N[C@@H](CC(C)C)C(=O)N[C@@H](CC(=O)O)C(=O)N[C@@H](CCCCN)C(=O)N[C@@H](CCCCNC(=O)COCCOCCNC(=O)COCCOCCNC(=O)CC[C@H](NC(=O)CCCCCCCCCCCCCCCCCCC(=O)O)C(=O)O)C(=O)N[C@@H](Cc1c[nH]cn1)C(=O)N[C@@H](CCC(N)=O)C(=O)NC(C)(C)C(=O)N[C@@H](CC(=O)O)C(=O)N[C@@H](Cc1ccccc1)C(=O)N[C@H](C(=O)N[C@@H](CCC(=O)O)C(=O)N[C@@H](Cc1ccncc1)C(=O)N[C@@H](CC(C)C)C(=O)N[C@@H](CC(C)C)C(=O)N[C@@H](CCC(=O)O)C(=O)N[C@H](C(=O)NCC(=O)N1CCC[C@H]1C(=O)N[C@@H](CO)C(=O)N[C@@H](CO)C(=O)NCC(=O)N[C@@H](C)C(=O)N1CCC[C@H]1C(=O)N1CCC[C@H]1C(=O)N1CCC[C@H]1C(=O)N[C@@H](CO)C(N)=O)[C@@H](C)O)C(C)C
B2: Example 45 (peptide)
peptide: Y[Aib]EGTFISDYSI[αMeL]LDKK([AEEA-AEEA-γGlu-C20 diacid])HQ[Aib]DFVE[4Pal]LLETGPSSGAPPPS-NH2
modifications: N-terminus assumed
SMILES: CC[C@H](C)[C@H](NC(=O)[C@H](Cc1ccccc1)NC(=O)[C@@H](NC(=O)CNC(=O)[C@H](CCC(=O)O)NC(=O)C(C)(C)NC(=O)[C@@H](N)Cc1ccc(O)cc1)[C@@H](C)O)C(=O)N[C@@H](CO)C(=O)N[C@@H](CC(=O)O)C(=O)N[C@@H](Cc1ccc(O)cc1)C(=O)N[C@@H](CO)C(=O)N[C@H](C(=O)N[C@@](C)(CC(C)C)C(=O)N[C@@H](CC(C)C)C(=O)N[C@@H](CC(=O)O)C(=O)N[C@@H](CCCCN)C(=O)N[C@@H](CCCCNC(=O)COCCOCCNC(=O)COCCOCCNC(=O)CC[C@H](NC(=O)CCCCCCCCCCCCCCCCCCC(=O)O)C(=O)O)C(=O)N[C@@H](Cc1c[nH]cn1)C(=O)N[C@@H](CCC(N)=O)C(=O)NC(C)(C)C(=O)N[C@@H](CC(=O)O)C(=O)N[C@@H](Cc1ccccc1)C(=O)N[C@H](C(=O)N[C@@H](CCC(=O)O)C(=O)N[C@@H](Cc1ccncc1)C(=O)N[C@@H](CC(C)C)C(=O)N[C@@H](CC(C)C)C(=O)N[C@@H](CCC(=O)O)C(=O)N[C@H](C(=O)NCC(=O)N1CCC[C@H]1C(=O)N[C@@H](CO)C(=O)N[C@@H](CO)C(=O)NCC(=O)N[C@@H](C)C(=O)N1CCC[C@H]1C(=O)N1CCC[C@H]1C(=O)N1CCC[C@H]1C(=O)N[C@@H](CO)C(N)=O)[C@@H](C)O)C(C)C)[C@@H](C)CC
B3: Example 43 (peptide)
peptide: Y[Aib]EGT[αMeF]ISDYSIALDKK([AEEA-AEEA-γGlu-C20 diacid])HQ[Aib]DFVE[4Pal]LLEAGPSSGAPPPS-NH2
modifications: N-terminus assumed
SMILES: CC[C@H](C)[C@H](NC(=O)[C@H](CO)NC(=O)[C@H](Cc1ccc(O)cc1)NC(=O)[C@H](CC(=O)O)NC(=O)[C@H](CO)NC(=O)[C@@H](NC(=O)[C@](C)(Cc1ccccc1)NC(=O)[C@@H](NC(=O)CNC(=O)[C@H](CCC(=O)O)NC(=O)C(C)(C)NC(=O)[C@@H](N)Cc1ccc(O)cc1)[C@@H](C)O)[C@@H](C)CC)C(=O)N[C@@H](C)C(=O)N[C@@H](CC(C)C)C(=O)N[C@@H](CC(=O)O)C(=O)N[C@@H](CCCCN)C(=O)N[C@@H](CCCCNC(=O)COCCOCCNC(=O)COCCOCCNC(=O)CC[C@H](NC(=O)CCCCCCCCCCCCCCCCCCC(=O)O)C(=O)O)C(=O)N[C@@H](Cc1c[nH]cn1)C(=O)N[C@@H](CCC(N)=O)C(=O)NC(C)(C)C(=O)N[C@@H](CC(=O)O)C(=O)N[C@@H](Cc1ccccc1)C(=O)N[C@H](C(=O)N[C@@H](CCC(=O)O)C(=O)N[C@@H](Cc1ccncc1)C(=O)N[C@@H](CC(C)C)C(=O)N[C@@H](CC(C)C)C(=O)N[C@@H](CCC(=O)O)C(=O)N[C@@H](C)C(=O)NCC(=O)N1CCC[C@H]1C(=O)N[C@@H](CO)C(=O)N[C@@H](CO)C(=O)NCC(=O)N[C@@H](C)C(=O)N1CCC[C@H]1C(=O)N1CCC[C@H]1C(=O)N1CCC[C@H]1C(=O)N[C@@H](CO)C(N)=O)C(C)C
B4: Example 40 (peptide)
peptide: Y[Aib]EGT[αMePhe(2-F)]ISDYSIALDKK([AEEA-AEEA-γGlu-C20 diacid])HQ[Aib]DFVEWLLETGPSSGAPPPS-NH2
modifications: N-terminus assumed
SMILES: CC[C@H](C)[C@H](NC(=O)[C@H](CO)NC(=O)[C@H](Cc1ccc(O)cc1)NC(=O)[C@H](CC(=O)O)NC(=O)[C@H](CO)NC(=O)[C@@H](NC(=O)[C@](C)(Cc1ccccc1F)NC(=O)[C@@H](NC(=O)CNC(=O)[C@H](CCC(=O)O)NC(=O)C(C)(C)NC(=O)[C@@H](N)Cc1ccc(O)cc1)[C@@H](C)O)[C@@H](C)CC)C(=O)N[C@@H](C)C(=O)N[C@@H](CC(C)C)C(=O)N[C@@H](CC(=O)O)C(=O)N[C@@H](CCCCN)C(=O)N[C@@H](CCCCNC(=O)COCCOCCNC(=O)COCCOCCNC(=O)CC[C@H](NC(=O)CCCCCCCCCCCCCCCCCCC(=O)O)C(=O)O)C(=O)N[C@@H](Cc1c[nH]cn1)C(=O)N[C@@H](CCC(N)=O)C(=O)NC(C)(C)C(=O)N[C@@H](CC(=O)O)C(=O)N[C@@H](Cc1ccccc1)C(=O)N[C@H](C(=O)N[C@@H](CCC(=O)O)C(=O)N[C@@H](Cc1c[nH]c2ccccc12)C(=O)N[C@@H](CC(C)C)C(=O)N[C@@H](CC(C)C)C(=O)N[C@@H](CCC(=O)O)C(=O)N[C@H](C(=O)NCC(=O)N1CCC[C@H]1C(=O)N[C@@H](CO)C(=O)N[C@@H](CO)C(=O)NCC(=O)N[C@@H](C)C(=O)N1CCC[C@H]1C(=O)N1CCC[C@H]1C(=O)N1CCC[C@H]1C(=O)N[C@@H](CO)C(N)=O)[C@@H](C)O)C(C)C
B5: Example 42 (peptide)
peptide: Y[Aib]EGT[αMeF]ISDYSIALDKK([AEEA-AEEA-γGlu-C20 diacid])HQ[Aib]DFVE[4Pal]LLEQGPSSGAPPPS-NH2
modifications: N-terminus assumed
SMILES: CC[C@H](C)[C@H](NC(=O)[C@H](CO)NC(=O)[C@H](Cc1ccc(O)cc1)NC(=O)[C@H](CC(=O)O)NC(=O)[C@H](CO)NC(=O)[C@@H](NC(=O)[C@](C)(Cc1ccccc1)NC(=O)[C@@H](NC(=O)CNC(=O)[C@H](CCC(=O)O)NC(=O)C(C)(C)NC(=O)[C@@H](N)Cc1ccc(O)cc1)[C@@H](C)O)[C@@H](C)CC)C(=O)N[C@@H](C)C(=O)N[C@@H](CC(C)C)C(=O)N[C@@H](CC(=O)O)C(=O)N[C@@H](CCCCN)C(=O)N[C@@H](CCCCNC(=O)COCCOCCNC(=O)COCCOCCNC(=O)CC[C@H](NC(=O)CCCCCCCCCCCCCCCCCCC(=O)O)C(=O)O)C(=O)N[C@@H](Cc1c[nH]cn1)C(=O)N[C@@H](CCC(N)=O)C(=O)NC(C)(C)C(=O)N[C@@H](CC(=O)O)C(=O)N[C@@H](Cc1ccccc1)C(=O)N[C@H](C(=O)N[C@@H](CCC(=O)O)C(=O)N[C@@H](Cc1ccncc1)C(=O)N[C@@H](CC(C)C)C(=O)N[C@@H](CC(C)C)C(=O)N[C@@H](CCC(=O)O)C(=O)N[C@@H](CCC(N)=O)C(=O)NCC(=O)N1CCC[C@H]1C(=O)N[C@@H](CO)C(=O)N[C@@H](CO)C(=O)NCC(=O)N[C@@H](C)C(=O)N1CCC[C@H]1C(=O)N1CCC[C@H]1C(=O)N1CCC[C@H]1C(=O)N[C@@H](CO)C(N)=O)C(C)C
B6: Example 44 (peptide)
peptide: Y[Aib]EGT[αMeF]ISDYSIALDKK([AEEA-AEEA-γGlu-C20 diacid])HQ[Aib]DFVE[4Pal]LLEGGPSSGAPPPS-NH2
modifications: N-terminus assumed
SMILES: CC[C@H](C)[C@H](NC(=O)[C@H](CO)NC(=O)[C@H](Cc1ccc(O)cc1)NC(=O)[C@H](CC(=O)O)NC(=O)[C@H](CO)NC(=O)[C@@H](NC(=O)[C@](C)(Cc1ccccc1)NC(=O)[C@@H](NC(=O)CNC(=O)[C@H](CCC(=O)O)NC(=O)C(C)(C)NC(=O)[C@@H](N)Cc1ccc(O)cc1)[C@@H](C)O)[C@@H](C)CC)C(=O)N[C@@H](C)C(=O)N[C@@H](CC(C)C)C(=O)N[C@@H](CC(=O)O)C(=O)N[C@@H](CCCCN)C(=O)N[C@@H](CCCCNC(=O)COCCOCCNC(=O)COCCOCCNC(=O)CC[C@H](NC(=O)CCCCCCCCCCCCCCCCCCC(=O)O)C(=O)O)C(=O)N[C@@H](Cc1c[nH]cn1)C(=O)N[C@@H](CCC(N)=O)C(=O)NC(C)(C)C(=O)N[C@@H](CC(=O)O)C(=O)N[C@@H](Cc1ccccc1)C(=O)N[C@H](C(=O)N[C@@H](CCC(=O)O)C(=O)N[C@@H](Cc1ccncc1)C(=O)N[C@@H](CC(C)C)C(=O)N[C@@H](CC(C)C)C(=O)N[C@@H](CCC(=O)O)C(=O)NCC(=O)NCC(=O)N1CCC[C@H]1C(=O)N[C@@H](CO)C(=O)N[C@@H](CO)C(=O)NCC(=O)N[C@@H](C)C(=O)N1CCC[C@H]1C(=O)N1CCC[C@H]1C(=O)N1CCC[C@H]1C(=O)N[C@@H](CO)C(N)=O)C(C)C

What follows are binders tested against human GLP-1 receptor (human, UniProt P43220 24-463) (assay: cell-based or functional assay).

Binder	hGLP1R cAMP Rel EC50
B1	1800 nM
B2	> 5000 nM
B3	1020 nM
B4	2330 nM
B5	815 nM
B6	1180 nM

Each binder was assayed against human glucagon receptor (human, UniProt P47871 26-477) (assay: cell-based or functional assay).
human glucagon receptor, sequence (P47871 26-477): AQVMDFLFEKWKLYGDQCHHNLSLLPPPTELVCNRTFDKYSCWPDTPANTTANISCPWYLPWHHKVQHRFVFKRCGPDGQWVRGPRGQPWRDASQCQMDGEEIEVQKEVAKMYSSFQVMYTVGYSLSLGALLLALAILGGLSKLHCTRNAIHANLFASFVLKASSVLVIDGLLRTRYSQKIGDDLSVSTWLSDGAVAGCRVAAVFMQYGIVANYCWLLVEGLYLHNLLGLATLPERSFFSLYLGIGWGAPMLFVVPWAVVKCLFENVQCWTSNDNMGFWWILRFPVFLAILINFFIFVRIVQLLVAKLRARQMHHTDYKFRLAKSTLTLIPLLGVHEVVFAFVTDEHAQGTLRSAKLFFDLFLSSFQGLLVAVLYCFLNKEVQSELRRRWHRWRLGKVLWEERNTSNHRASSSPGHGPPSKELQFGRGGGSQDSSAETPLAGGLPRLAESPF

Binder	hGcgR cAMP Rel EC50
B1	> 5000 nM
B2	1690 nM
B3	> 5000 nM
B4	> 5000 nM
B5	> 5000 nM
B6	> 5000 nM

Each binder was assayed against T1, human glucose-dependent insulinotropic peptide receptor (human, UniProt P48546 22-466) (assay: cell-based or functional assay).
T1 sequence (looked up): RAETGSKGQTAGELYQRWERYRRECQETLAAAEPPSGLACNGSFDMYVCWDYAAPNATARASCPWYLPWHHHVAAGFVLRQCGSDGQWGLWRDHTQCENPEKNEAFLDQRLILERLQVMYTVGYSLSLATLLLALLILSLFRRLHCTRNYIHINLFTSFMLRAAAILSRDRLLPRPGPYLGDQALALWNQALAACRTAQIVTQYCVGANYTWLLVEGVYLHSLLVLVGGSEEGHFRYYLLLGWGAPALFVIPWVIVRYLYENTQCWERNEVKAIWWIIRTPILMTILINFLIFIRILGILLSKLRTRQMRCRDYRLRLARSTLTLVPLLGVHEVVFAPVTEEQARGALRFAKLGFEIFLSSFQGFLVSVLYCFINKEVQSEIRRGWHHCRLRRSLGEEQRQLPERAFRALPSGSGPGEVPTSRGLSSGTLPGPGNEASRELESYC

Binder	hGIPR cAMP Rel EC50
B1	0.0281 nM
B2	0.049 nM
B3	0.0154 nM
B4	0.033 nM
B5	0.0091 nM
B6	0.0084 nM
